In one assay the target is biotin-BCMA抗原 (human) (UniProt Q02223). The assay is described as follows: flow cytometry, T cells 72 h after infection, 0.2 μg/ml biotin-BCMA, APC-Streptavidin. Background: A flow cytometer gives signals particle by particle.
Assay [1] concerns the target T1, BCMA on BCMA+ target cells (NCI-H929; K562-BCMA) (human, UniProt Q02223 1-184).
T1 sequence (looked up): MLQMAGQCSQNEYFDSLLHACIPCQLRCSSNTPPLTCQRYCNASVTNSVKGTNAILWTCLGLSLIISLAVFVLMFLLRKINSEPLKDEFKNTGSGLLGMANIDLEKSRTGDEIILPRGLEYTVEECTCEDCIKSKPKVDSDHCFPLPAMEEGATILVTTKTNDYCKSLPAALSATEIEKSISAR
The assay is described as follows: cell-based or functional assay.

A further assay deals with 人BCMA(hBCMA)蛋白 (human) (UniProt Q02223). The assay is described as follows: phage ELISA, 0.5 μg/ml hBCMA coated, phage supernatant, anti-M13-HRP. (An ELISA detects its analyte on a solid surface through an enzyme-linked reagent.)

B1: 2079嵌合抗原受体 (CAR-BCMA-2079, on T cells CAR-BCMA-2079-T) (other)
chain: QSALTQPASVSGSPGQSITMSCTGTSSDVGGYKYVSWYQQHPGKAPQLMIHDVRERPSGVSNRFSGSKSGNTASLTISGLQAEDEADYYCSSFTNNSTFVFGTGTKVTVLGSTSGSGKPGSGEGSTKGQVQLQQSGPGLVKPSQTLSLTCAISGDSVSSNSAAWNWIRQSPSRGLEWLGRTYYRSTWYNDYAVSVKSRITINPDTSKNQFSLQLNSVTPEDTAVYYCARGTGTLDYWGQGTLVTVSSTTTPAPRPPTPAPTIASQPLSLRPEACRPAAGGAVHTRGLDFACDIYIWAPLAGTCGVLLLSLVITLYCKRGRKKLLYIFKQPFMRPVQTTQEEDGCSCRFPEEEEGGCELRVKFSRSADAPAYKQGQNQLYNELNLGRREEYDVLDKRRGRDPEMGGKPRRKNPQEGLYNELQKDKMAEAYSEIGMKGERRRGKGHDGLYQGLSTATKDTYDALHMQALPPR
Regarding B1, in the assay with biotin-BCMA抗原 (human), the CAR-BCMA阳性率 (percent of T cells stained by biotin-BCMA) was determined as 22.3%. Further, in assay [1], the “proportion of target cells K562-BCMA in total cells, co-culture E:T 7:1, 0 h” value stood at 9.28%; the “proportion of target cells K562-BCMA in total cells, co-culture E:T 7:1, 48 h” value is 8.69%; the “proportion of target cells NCI-H929 in total cells, co-culture E:T 5:1, end” value was determined as 6.63%; the “proportion of target cells NCI-H929 in total cells, co-culture E:T 5:1, start” value is 11.3%.

B2: 2073嵌合抗原受体 (CAR-BCMA-2073, on T cells CAR-BCMA-2073-T) (other)
chain: DIVMTQSPDSLAVSLGERATINCKSSQNVLYSSNNRNYLAWYQQKPGQPPKLLIYWASTRESGVPDRFSGSGSGTDFTLTISSLQAEDVAVYYCQQYYGSVVTFGGGTKVEIKGSTSGSGKPGSGEGSTKGQVQLQQSGPGLVKPSQTLSLTCAISGDSVSSNSAAWNWIRQSPSRGLEWLGRTYYRSKWYNDYALSVKSRITINPDTSKNQFSLQLNSVTPEDTAVYYCARGASSFDYWGQGTLVTVSSTTTPAPRPPTPAPTIASQPLSLRPEACRPAAGGAVHTRGLDFACDIYIWAPLAGTCGVLLLSLVITLYCKRGRKKLLYIFKQPFMRPVQTTQEEDGCSCRFPEEEEGGCELRVKFSRSADAPAYKQGQNQLYNELNLGRREEYDVLDKRRGRDPEMGGKPRRKNPQEGLYNELQKDKMAEAYSEIGMKGERRRGKGHDGLYQGLSTATKDTYDALHMQALPPR
For the molecule B2, in the assay with biotin-BCMA抗原 (human), the CAR-BCMA阳性率 (percent of T cells stained by biotin-BCMA) was determined as 45.1%. For the same molecule, in assay [1], the “proportion of target cells K562-BCMA in total cells, co-culture E:T 7:1, 0 h” value is 8.69%; the “proportion of target cells K562-BCMA in total cells, co-culture E:T 7:1, 48 h” value was 6.1%; the “proportion of target cells NCI-H929 in total cells, co-culture E:T 5:1, end” value was 0.435%; the “proportion of target cells NCI-H929 in total cells, co-culture E:T 5:1, start” value was found to be 15.4%.

B3: 抗BCMA单链抗体4(命名为抗体2082) (scFv, V domains shown)
VH: QVQLQQSGPALVKPSQTLSLTCVISGDSVSSNSASWTWIRQSPSRGLEWLGRTYRRADRWYYDYALSLNSRLTINPDTSKNHFALHLTSVTPEDTAVYYCSREYWGGSFDVWGQGTTVTVSS
VL: QPVLTQPASVSGSPGQSITISCTGTSSDVGGYDYVSWYQQHPGKAPKLMLYEVNNRPSGVSNRFSGSKSGNTASLTISGLQAEDEGAYYCSSYTSSNTHVVFGGGTQLTVL
The molecule B3 gave an OD450 with 人BCMA(hBCMA)蛋白 (human) of more than 1.5 OD450.

B4: 抗BCMA单链抗体2(命名为抗体2077) (scFv, V domains shown)
VH: QVQLQQSGPGLVKPSQTLSLTCAISGDSVSSNSAAWNWIRQSPSRGLEWLGRTYYRSKWYNDYAVSVKSRITINPDTSKNQFSLQLNSVTPEDTAVYYCARLAYEVRSTDWYFDLWGRGTLVTVSS
VL: QPVLTQPPSVSEAPRQRVTISCSGSSSNIGNNAVNWYQQLPGKAPKLLIYYDDLLPSGVSDRFSGSKSGTSASLAISGLQSEDEADYYCAAWDDSLNGWVFGGGTKLTVL
In the assay with 人BCMA(hBCMA)蛋白 (human), B4 returned an OD450 of more than 1.5 OD450.

B5: 抗BCMA单链抗体3(命名为抗体2079) (scFv, V domains shown)
VH: QVQLQQSGPGLVKPSQTLSLTCAISGDSVSSNSAAWNWIRQSPSRGLEWLGRTYYRSTWYNDYAVSVKSRITINPDTSKNQFSLQLNSVTPEDTAVYYCARGTGTLDYWGQGTLVTVSS
VL: QSALTQPASVSGSPGQSITMSCTGTSSDVGGYKYVSWYQQHPGKAPQLMIHDVRERPSGVSNRFSGSKSGNTASLTISGLQAEDEADYYCSSFTNNSTFVFGTGTKVTVL
For the molecule B5, the OD450 with 人BCMA(hBCMA)蛋白 (human) is more than 1.5 OD450.

These data come from CN112125974A (BIORAY LABORATORIES INC, dated 2020).
